The target in the assay is microtubules assembled from purified bovine brain tubulin (bovine) (UniProt Q6B856). In words: optical trap rupture force assay; kinetochores held on polystyrene beads through α-penta-His antibody; dynamic microtubules grown from coverslip-anchored GMPCPP seeds with bovine brain tubulin in BRB80, 1 mM GTP; 23 °C; force ramp 0.25 pN/s.

The values below come from doi:10.1101/2024.02.28.582571.

UniProt Q6B856, sequence (Q6B856 whole entry, looked up): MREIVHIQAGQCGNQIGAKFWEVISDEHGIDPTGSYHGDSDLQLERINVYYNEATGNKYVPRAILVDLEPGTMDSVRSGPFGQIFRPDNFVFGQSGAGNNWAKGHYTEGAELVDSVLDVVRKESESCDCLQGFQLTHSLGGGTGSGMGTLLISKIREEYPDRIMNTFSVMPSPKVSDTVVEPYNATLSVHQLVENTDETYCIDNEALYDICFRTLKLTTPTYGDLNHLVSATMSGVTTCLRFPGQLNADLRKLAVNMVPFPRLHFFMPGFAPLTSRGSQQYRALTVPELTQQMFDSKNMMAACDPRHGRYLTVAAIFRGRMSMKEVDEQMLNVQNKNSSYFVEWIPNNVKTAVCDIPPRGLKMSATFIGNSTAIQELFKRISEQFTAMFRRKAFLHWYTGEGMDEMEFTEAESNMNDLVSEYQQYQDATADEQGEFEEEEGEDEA

The substance “native kinetochores purified from Saccharomyces cerevisiae via Dsn1-6His-3M3DK (from UniProt P40568 1-576) (complex)” returned a median rupture force of 7.2 pN.

In the case of “native kinetochores purified from Kluyveromyces marxianus via Dsn1-6His-3M3DK (from UniProt A0ABX6F0Z3 1-547) (complex)”, the median rupture force stood at 7.5 pN.
